Data as given in the supplement of paper PMC9112550, “Optimization of the antimicrobial peptide Bac7 by deep mutational scanning” (BMC Biology, 2022).

Test system: Escherichia coli TOP10
Assay: shrunken log2 fold change of peptide-encoding DNA abundance (4.5 h post-induction vs induction); higher = less antimicrobial activity (less host growth inhibition)
Settings: time post-induction: 4.5 h; library: site-saturation at positions 5, 18, 19, 20
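Also: peptides expressed intracellularly from a pBAD plasmid library in pooled LB shake-flask culture, induced with 0.3% L-arabinose, DNA abundance read by NGS, three biological replicates, DESeq2 with apeglm shrinkage.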

Sequence: RRIRTRPPRLPRPRPRPNQFPRP
- shrunken log2 fold change: -0.205

Sequence: RRIRWRPPRLPRPRPRPSMWPRP
- shrunken log2 fold change: 0.111

Sequence: RRIRLRPPRLPRPRPRPSSQPRP
- shrunken log2 fold change: -0.0758

Sequence: RRIRMRPPRLPRPRPRPHNWPRP
- shrunken log2 fold change: 0.249

Sequence: RRIRMRPPRLPRPRPRPPEAPRP
- shrunken log2 fold change: 0.779

Sequence: RRIRRRPPRLPRPRPRPSYFPRP
- shrunken log2 fold change: -0.395

Sequence: RRIRWRPPRLPRPRPRPWPNPRP
- shrunken log2 fold change: 0.0899

Sequence: RRIRPRPPRLPRPRPRPNMMPRP
- shrunken log2 fold change: -0.593

Sequence: RRIRSRPPRLPRPRPRPQNFPRP
- shrunken log2 fold change: 0.00814

Sequence: RRIRKRPPRLPRPRPRPNSDPRP
- shrunken log2 fold change: -0.0158

Sequence: RRIRMRPPRLPRPRPRPHNMPRP
- shrunken log2 fold change: -0.243

Sequence: RRIRGRPPRLPRPRPRPSECPRP
- shrunken log2 fold change: 0.519

Sequence: RRIRGRPPRLPRPRPRPFLLPRP
- shrunken log2 fold change: 0.206

Sequence: RRIRIRPPRLPRPRPRPLKYPRP
- shrunken log2 fold change: -0.0551

Sequence: RRIRIRPPRLPRPRPRPEPRPRP
- shrunken log2 fold change: 0.563

Sequence: RRIRGRPPRLPRPRPRPQKIPRP
- shrunken log2 fold change: 0.274

Sequence: RRIRIRPPRLPRPRPRPDFCPRP
- shrunken log2 fold change: -0.42

Sequence: RRIRFRPPRLPRPRPRPCTHPRP
- shrunken log2 fold change: -0.842

Sequence: RRIRMRPPRLPRPRPRPGCAPRP
- shrunken log2 fold change: 1.09

Sequence: RRIRYRPPRLPRPRPRPLQEPRP
- shrunken log2 fold change: -0.218

Sequence: RRIRPRPPRLPRPRPRPGNIPRP
- shrunken log2 fold change: -0.000778

Sequence: RRIRYRPPRLPRPRPRPCVTPRP
- shrunken log2 fold change: -0.000683

Sequence: RRIRCRPPRLPRPRPRPNWWPRP
- shrunken log2 fold change: 0.32

Sequence: RRIRQRPPRLPRPRPRPQTKPRP
- shrunken log2 fold change: -0.133

Sequence: RRIRTRPPRLPRPRPRPILTPRP
- shrunken log2 fold change: -0.139

Sequence: RRIRIRPPRLPRPRPRPIRIPRP
- shrunken log2 fold change: 0.0736

Sequence: RRIRGRPPRLPRPRPRPFLDPRP
- shrunken log2 fold change: 0.209

Sequence: RRIRQRPPRLPRPRPRPIHGPRP
- shrunken log2 fold change: -0.0264

Sequence: RRIRIRPPRLPRPRPRPHCWPRP
- shrunken log2 fold change: -0.27

Sequence: RRIRYRPPRLPRPRPRPNHGPRP
- shrunken log2 fold change: -0.0102

Sequence: RRIRIRPPRLPRPRPRPYMYPRP
- shrunken log2 fold change: -0.91

Sequence: RRIRNRPPRLPRPRPRPNFMPRP
- shrunken log2 fold change: -0.269

Sequence: RRIRCRPPRLPRPRPRPFLMPRP
- shrunken log2 fold change: -0.422

Sequence: RRIRLRPPRLPRPRPRPYGGPRP
- shrunken log2 fold change: -0.0286

Sequence: RRIRHRPPRLPRPRPRPWQTPRP
- shrunken log2 fold change: 0.266

Sequence: RRIRFRPPRLPRPRPRPYYAPRP
- shrunken log2 fold change: -1.21

Sequence: RRIRGRPPRLPRPRPRPPCMPRP
- shrunken log2 fold change: 0.293

Sequence: RRIRIRPPRLPRPRPRPLAVPRP
- shrunken log2 fold change: 0.097

Sequence: RRIRARPPRLPRPRPRPYFDPRP
- shrunken log2 fold change: -0.123

Sequence: RRIRSRPPRLPRPRPRPSLGPRP
- shrunken log2 fold change: 0.319

Sequence: RRIRGRPPRLPRPRPRPQNDPRP
- shrunken log2 fold change: 0.128

Sequence: RRIRPRPPRLPRPRPRPQKIPRP
- shrunken log2 fold change: -0.267

Sequence: RRIRYRPPRLPRPRPRPVWGPRP
- shrunken log2 fold change: 0.432

Sequence: RRIRNRPPRLPRPRPRPWWLPRP
- shrunken log2 fold change: -0.106

Sequence: RRIRNRPPRLPRPRPRPTQPPRP
- shrunken log2 fold change: 0.6

Sequence: RRIRSRPPRLPRPRPRPSIMPRP
- shrunken log2 fold change: -0.196

Sequence: RRIRSRPPRLPRPRPRPTAWPRP
- shrunken log2 fold change: 0.47

Sequence: RRIRSRPPRLPRPRPRPGWHPRP
- shrunken log2 fold change: 0.234

Sequence: RRIRVRPPRLPRPRPRPVTIPRP
- shrunken log2 fold change: -0.232

Sequence: RRIRTRPPRLPRPRPRPYIGPRP
- shrunken log2 fold change: -0.119

Sequence: RRIRPRPPRLPRPRPRPWWFPRP
- shrunken log2 fold change: -0.133

Sequence: RRIRERPPRLPRPRPRPERVPRP
- shrunken log2 fold change: -0.0309

Sequence: RRIRYRPPRLPRPRPRPFRPPRP
- shrunken log2 fold change: -0.0325

Sequence: RRIRTRPPRLPRPRPRPACVPRP
- shrunken log2 fold change: 0.235

Sequence: RRIRSRPPRLPRPRPRPMIKPRP
- shrunken log2 fold change: -0.464

Sequence: RRIRYRPPRLPRPRPRPPKSPRP
- shrunken log2 fold change: -0.0324

Sequence: RRIRQRPPRLPRPRPRPVHLPRP
- shrunken log2 fold change: 0.00299

Sequence: RRIRVRPPRLPRPRPRPVHYPRP
- shrunken log2 fold change: -0.0353

Sequence: RRIRHRPPRLPRPRPRPDFQPRP
- shrunken log2 fold change: -0.00193

Sequence: RRIRNRPPRLPRPRPRPNTHPRP
- shrunken log2 fold change: -0.584

Sequence: RRIRMRPPRLPRPRPRPWRMPRP
- shrunken log2 fold change: 0.0682

Sequence: RRIRKRPPRLPRPRPRPHLWPRP
- shrunken log2 fold change: 0.709

Sequence: RRIRVRPPRLPRPRPRPSKMPRP
- shrunken log2 fold change: -0.243

Sequence: RRIRVRPPRLPRPRPRPQLCPRP
- shrunken log2 fold change: -0.143

Sequence: RRIRVRPPRLPRPRPRPCYSPRP
- shrunken log2 fold change: 0.00378

Sequence: RRIRGRPPRLPRPRPRPSKAPRP
- shrunken log2 fold change: 0.165

Sequence: RRIRYRPPRLPRPRPRPTIFPRP
- shrunken log2 fold change: -0.412

Sequence: RRIRSRPPRLPRPRPRPRMWPRP
- shrunken log2 fold change: 0.114

Sequence: RRIRWRPPRLPRPRPRPDFCPRP
- shrunken log2 fold change: 0.247

Sequence: RRIRCRPPRLPRPRPRPEPNPRP
- shrunken log2 fold change: 0.265

Sequence: RRIRGRPPRLPRPRPRPPIIPRP
- shrunken log2 fold change: -0.0886

Sequence: RRIRQRPPRLPRPRPRPFMPPRP
- shrunken log2 fold change: -0.216

Sequence: RRIRFRPPRLPRPRPRPQGQPRP
- shrunken log2 fold change: -0.103

Sequence: RRIRSRPPRLPRPRPRPLRCPRP
- shrunken log2 fold change: 0.435

Sequence: RRIRYRPPRLPRPRPRPTRYPRP
- shrunken log2 fold change: -0.469
